Laboratory results taken from the supplement of paper PMC7877785.
± gives the uncertainty stated by the source.

Experiment: self-splicing fitness, log relative to wild type (ln ratio); higher = more splicing; Tetrahymena group I intron in knt gene, E. coli kanamycin selection, DiMSum; sequences stand for … in CUCUCU…GGAGGGAAAAGUUAUCAGGCAUGCACCUGGUAGCUAGUCUUUAAACCAAUAGAUUGCAUCGGUUUAAAAGGCAAGACCGUCAAAUUGCGGGAAAGGGGUCAACAGCCGUUCAGUACCAAGUCUCAGGGGAAACUUUGAGAUGGCCUUGCAAAGGGUAUGGUAAUAAGCUGACGGACAUGGUCCUAACCACGCAGCCAAGUCCUAAGUCAACAGAUCUUCUGUUGAUAUGGAUGCAGUUCACAGACUAAAUGUCGGUCGGGGAAGAUGUAUUCUUCUCAUAAGAUAUAGUCGGACCUCUCCUUAAUGGGAGCUAGCGGAUGAAGUGAUGCAACACUGGAGCCGCUGGGAACUAAUUUGUAUGCGAAAGUAUAUUGAUUAGUUUUGGAGUACUCGUGGUCG
Procedure, shortened: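 The eight P1ex-region nucleotides of an intron in the knt kanamycin-resistance gene on pET-22b(+) were all randomised and the library put into E. coli BL21(DE3). Six replicate transformations were grown overnight at 37°C or 30°C on LB agar with or without 25 μg/mL kanamycin, together with 100 μg/mL carbenicillin, 50 μM IPTG and 0.2% rhamnose. Colonies were pooled and amplicon-sequenced on an Illumina HiSeq 2500. Fitness from DiMSum is the error-weighted combination of wild-type-normalised replicate fold changes, kanamycin over none.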

| Sequence | self-splicing fitness (ln) (30 °C) | self-splicing fitness (ln) (37 °C) |
| --- | --- | --- |
| AGAAAGCAAUAUUACGUCCC | -0.156 ± 0.18 | 0.119 ± 0.25 |
| AGGAAGCAAUAUUACGGACA | -0.516 ± 0.12 | -0.384 ± 0.15 |
| CCAGAGCAAUAUUACGUGUG | -1.69 ± 0.091 | -1.54 ± 0.097 |
| AGUGAGCAAUAUUACGGGUG | -3.71 ± 0.17 | -2.79 ± 0.21 |
| CCAGAGCAAUAUUACGACGU | -3.74 ± 0.27 | -3.28 ± 0.47 |
| GAUAAGCAAUAUUACGUUAG | -5.21 ± 0.45 | -2.27 ± 0.22 |
| GUAUAGCAAUAUUACGACGG | -4.18 ± 0.37 | -2.33 ± 0.35 |
| AGCCAGCAAUAUUACGUAAG | -2.38 ± 0.057 | -1.34 ± 0.078 |
| AGCUAGCAAUAUUACGUGUA | -3.86 ± 0.18 | -1.48 ± 0.12 |
| AUUCAGCAAUAUUACGGACC | -0.601 ± 0.1 | 0.355 ± 0.15 |
| AUAGAGCAAUAUUACGUUCU | -1.35 ± 0.15 | 0.267 ± 0.17 |
| CUGCAGCAAUAUUACGUCCC | -1.66 ± 0.42 | – |
| ACGGAGCAAUAUUACGGCGG | -1.4 ± 0.12 | -0.413 ± 0.13 |
| CAUAAGCAAUAUUACGACCA | – | -2.1 ± 0.36 |
| UAUAAGCAAUAUUACGUCAA | -2.24 ± 0.14 | -0.698 ± 0.11 |
| UCAGAGCAAUAUUACGGUAA | -3.7 ± 0.47 | -1.85 ± 0.41 |
| UAAUAGCAAUAUUACGAGGG | -3.81 ± 0.39 | -1.73 ± 0.23 |
| CGCAAGCAAUAUUACGGAAU | -3.63 ± 0.15 | -2.77 ± 0.18 |
| CCCUAGCAAUAUUACGCUAU | -3.92 ± 0.43 | – |
| AAACAGCAAUAUUACGUUAC | -3.19 ± 0.16 | -2.56 ± 0.26 |
| UACGAGCAAUAUUACGAAUA | -3.28 ± 0.47 | -2.87 ± 0.48 |
| CCCUAGCAAUAUUACGGGUG | -2.51 ± 0.11 | -0.894 ± 0.089 |
| UACCAGCAAUAUUACGUACG | -0.42 ± 0.12 | -0.594 ± 0.15 |
| AGGAAGCAAUAUUACGUUGC | -3.23 ± 0.37 | -1.29 ± 0.41 |
| AGAUAGCAAUAUUACGCUUA | -0.901 ± 0.15 | -1.08 ± 0.13 |
| GGGGAGCAAUAUUACGGUUA | -1.34 ± 0.26 | -2.75 ± 0.31 |

| Sequence | self-splicing fitness (ln) (30 °C) | self-splicing fitness (ln) (37 °C) |
| --- | --- | --- |
| GAAUAGCAAUAUUACGGGAG | – | -3.35 ± 0.33 |
| UUGGAGCAAUAUUACGGCGA | -1.32 ± 0.48 | – |
| UAACAGCAAUAUUACGAUAA | -1.1 ± 0.076 | -0.209 ± 0.08 |
| CGAUAGCAAUAUUACGGGUC | -4.07 ± 0.46 | -2.46 ± 0.3 |
| GACCAGCAAUAUUACGUUAG | -3.82 ± 0.24 | -2.79 ± 0.2 |
| UACGAGCAAUAUUACGUCAA | – | -2.31 ± 0.46 |
| GUAUAGCAAUAUUACGCAUA | -2.3 ± 0.28 | -0.525 ± 0.27 |
| AGUAAGCAAUAUUACGGAGU | -2.22 ± 0.18 | -2.37 ± 0.39 |
| AAGGAGCAAUAUUACGAUCG | -1.99 ± 0.19 | -1.8 ± 0.27 |
| CCUCAGCAAUAUUACGCAGA | -3.39 ± 0.34 | -2.27 ± 0.33 |
| GAAGAGCAAUAUUACGCCUA | -2.55 ± 0.34 | -1.3 ± 0.25 |
| CUGGAGCAAUAUUACGUAAG | -1.06 ± 0.083 | -0.0976 ± 0.1 |
| GCCGAGCAAUAUUACGGACC | -2.47 ± 0.35 | -1.51 ± 0.39 |
| GCCUAGCAAUAUUACGGGUA | -0.787 ± 0.072 | 0.611 ± 0.067 |
| AAGCAGCAAUAUUACGAGAG | -4.01 ± 0.29 | -2.49 ± 0.25 |
| CGUUAGCAAUAUUACGCAGU | – | -2.29 ± 0.37 |
| GAUCAGCAAUAUUACGUUAG | -2.05 ± 0.12 | -1.92 ± 0.17 |
| AACUAGCAAUAUUACGCGGC | -3.01 ± 0.19 | -3.27 ± 0.22 |
| AGCAAGCAAUAUUACGAGAA | – | -2.27 ± 0.4 |
| AGCUAGCAAUAUUACGACCG | -1.53 ± 0.1 | -1.06 ± 0.13 |
| GUCUAGCAAUAUUACGAGUA | -1.19 ± 0.21 | -1.39 ± 0.22 |
| AGAUAGCAAUAUUACGAAUC | -1.46 ± 0.18 | -1.06 ± 0.24 |
| ACGGAGCAAUAUUACGGCAA | -2.98 ± 0.3 | -2.61 ± 0.27 |
| GGCCAGCAAUAUUACGCAUG | -2.27 ± 0.12 | -1.3 ± 0.14 |
| ACAGAGCAAUAUUACGUACG | -3.9 ± 0.23 | -2.3 ± 0.2 |
| GACUAGCAAUAUUACGUGGC | -3.56 ± 0.24 | -2.54 ± 0.21 |

| Sequence | self-splicing fitness (ln) (30 °C) | self-splicing fitness (ln) (37 °C) |
| --- | --- | --- |
| AGGCAGCAAUAUUACGUACA | -0.585 ± 0.071 | -0.742 ± 0.093 |
| CCUCAGCAAUAUUACGGAUG | -0.811 ± 0.066 | -0.682 ± 0.087 |
| AAAGAGCAAUAUUACGACGA | -2.27 ± 0.23 | -2.57 ± 0.25 |
| UCUCAGCAAUAUUACGAGCA | -0.507 ± 0.081 | 0.222 ± 0.12 |
| UAUAAGCAAUAUUACGGCCA | -0.385 ± 0.15 | 0.169 ± 0.22 |
| GAUUAGCAAUAUUACGAACC | -0.528 ± 0.24 | -0.802 ± 0.37 |
| GCGAAGCAAUAUUACGGGUC | – | -0.782 ± 0.19 |
| UGCGAGCAAUAUUACGGGGA | -2.81 ± 0.39 | -1.9 ± 0.29 |
| GGCUAGCAAUAUUACGUUAG | -3.51 ± 0.32 | -0.919 ± 0.24 |
| GACAAGCAAUAUUACGUCAG | -3.3 ± 0.23 | -2.21 ± 0.2 |
| GCUAAGCAAUAUUACGUCCU | -0.847 ± 0.14 | 0.223 ± 0.17 |
| GACCAGCAAUAUUACGUACG | -1.34 ± 0.074 | -0.696 ± 0.088 |
| CUGCAGCAAUAUUACGUCGC | -4.61 ± 0.46 | -2.83 ± 0.32 |
| CAGGAGCAAUAUUACGCUUU | -3.59 ± 0.22 | -1.81 ± 0.17 |
| CUGUAGCAAUAUUACGUGGU | -3.42 ± 0.24 | -2.75 ± 0.28 |
| AAAUAGCAAUAUUACGUGUC | -3.4 ± 0.19 | -3.29 ± 0.25 |
| UGAGAGCAAUAUUACGCUGG | -3.87 ± 0.22 | -2.67 ± 0.25 |
| AACUAGCAAUAUUACGUAGA | -1.76 ± 0.079 | -0.779 ± 0.11 |
| GUAUAGCAAUAUUACGGAAU | -2.27 ± 0.23 | -2.39 ± 0.21 |
| AUCUAGCAAUAUUACGUACA | -1.73 ± 0.15 | 0.464 ± 0.17 |
| AUCUAGCAAUAUUACGCUCG | -0.792 ± 0.091 | -0.0276 ± 0.12 |
| CUUUAGCAAUAUUACGCACU | -3.69 ± 0.44 | -1.83 ± 0.19 |
| GCUAAGCAAUAUUACGGUCA | -0.887 ± 0.13 | -0.914 ± 0.15 |
| GAUAAGCAAUAUUACGGACG | -1.08 ± 0.13 | -0.201 ± 0.14 |
| AUGUAGCAAUAUUACGUCCA | -1.65 ± 0.17 | -0.252 ± 0.17 |
| AUGUAGCAAUAUUACGUCCU | -0.674 ± 0.13 | 0.252 ± 0.19 |
